Changes are numbered by the printed parent chain.
B1: muMNACEP (antibody, V domains shown)
VH: EVKLMESGGGLVQPGGSLKLSCAASGFTFSTYTMSWARQTPEKRLEWVAYISKGGGSTYYPDTVKGRFTISRDNAKNTLYLQMSSLKSEDTALYYCARGAMYGNDFFYPMDYWGQQTSVTVSS
VL: DIVLSQSPAIMSASLGEEITLTCSASSSVSYMHWYQQKSGTSPKLLITTTSNLASGVPSRFSGSGSGTFYSLTISSVEAEDAADYYCHQWSSYPWTFGGGTKLEIK
notes: Murine monoclonal antibody as disclosed in EP1181318; also called murine antibody MNAC13; MNAC13
B2: ChimMNAC13 (antibody, V domains shown)
VH: B1 VH
VL: B1 VL
notes: Corresponds to muMNACEP but has human constant regions instead of mouse constant regions; also called chimNINAC13; mVHEP/mVLEP
B3: BXhVH3VL3 (antibody, human IgG1, V domains shown)
VH: EVQLLESGGGLVQPGGSLRLSCAASGFTFSTYTMSWVRQAPGKRLEWVAYISKGGGSTYYPDTVKGRFTISRDNSKNTLYLQMNSLRAEDTAVYYCARGAMYGNDFFYPMDYWGQGTTVTVSS
VL: QIVLTQSPATLSLSPGERATLSCSASSSVSYMHWYQQKPGQSPRLLIYTTSNLASGIPSRFSGSGSGTFYTLTISSLEPEDFAVYYCHQWSSYPWTFGGGTKLEIK
notes: Human IgG1 constant regions (IgG1 expression vectors); also called hVH3/hVL3
B4: BXhVH5VL3 (antibody, human IgG1, V domains shown)
VH: B3 VH with Q3K, A40T
VL: B3 VL
notes: Human IgG1 constant regions (IgG1 expression vectors); also called hVH5/hVL3
B5: HuMNACWOv (antibody, V domains shown)
VH: B3 VH with V37A, R44G, T91S, T118L
VL: DIVLTQSPSSLSASVGDRVTITCSASSSVSYMHWYQQKPGQAPKLLIYTTSNLASGVPSRFSGSGSGTDYTLTISSLQPEDVATYYCHQWSSYPWTFGGGTKVEIK
notes: Variant of HuMNACWO whose heavy chain CDR3 is replaced with that of muMNACEP; also called hVHWOv/hVLWO; HuVHWOv/HuVLWO
B6: BXhVH3VL6 (antibody, human IgG1, V domains shown)
VH: B3 VH
VL: B3 VL with Q1E, R18E, F82A, V84D
notes: Human IgG1 constant regions (IgG1 expression vectors); COS-7 supernatant; also called hVH3/hVL6
B7: BXhVH5VL2 (antibody, human IgG1, V domains shown)
VH: B3 VH with Q3K, A40T
VL: B3 VL with Q1E, F69D, Y70F, F82A, V84D, G99Q
notes: Human IgG1 constant regions (IgG1 expression vectors); COS-7 supernatant; also called hVH5/hVL2
B8: BXhVH5VL7 (antibody, human IgG1, V domains shown)
VH: B3 VH with Q3K, A40T
VL: B3 VL with F82A, V84D
notes: Human IgG1 constant regions (IgG1 expression vectors); COS-7 supernatant; also called hVH5/hVL7
B9: BXhVH3VL7 (antibody, human IgG1, V domains shown)
VH: B3 VH
VL: B3 VL with F82A, V84D
notes: Human IgG1 constant regions (IgG1 expression vectors); COS-7 supernatant; also called hVH3/hVL7
B10: BXhVH3VL8 (antibody, human IgG1, V domains shown)
VH: B3 VH
VL: B3 VL with R18E, P39S, Q41T, F82A, V84D
notes: Human IgG1 constant regions (IgG1 expression vectors); COS-7 supernatant; also called hVH3/hVL8
B11: BXhVH5VL4 (antibody, human IgG1, V domains shown)
VH: B3 VH with Q3K, A40T
VL: B3 VL with F69D, Y70F, F82A, V84D
notes: Human IgG1 constant regions (IgG1 expression vectors); COS-7 supernatant; also called hVH5/hVL4
B12: BXhVH5VL5 (antibody, human IgG1, V domains shown)
VH: B3 VH with Q3K, A40T
VL: B3 VL with F69D, F82A, V84D, G99Q
notes: Human IgG1 constant regions (IgG1 expression vectors); COS-7 supernatant; also called hVH5/hVL5
B13: BXhVH5VL6 (antibody, human IgG1, V domains shown)
VH: B3 VH with Q3K, A40T
VL: B3 VL with Q1E, R18E, F82A, V84D
notes: Human IgG1 constant regions (IgG1 expression vectors); COS-7 supernatant; also called hVH5/hVL6
B14: HuMNACWO (antibody, V domains shown)
VH: B3 VH with V37A, R44G, T91S, Y102F, Y108F, Y112R, T118L
VL: B5 VL
notes: Prior art humanised antibody; also called humanised antibody MNAC13 disclosed in WO 05/061540; HuVHWO/HuVLWO

target: T1, human TrkA receptor on the cell surface (human, UniProt P04629 33-796); assay: cell-based or functional assay
T1 sequence (P04629 33-796): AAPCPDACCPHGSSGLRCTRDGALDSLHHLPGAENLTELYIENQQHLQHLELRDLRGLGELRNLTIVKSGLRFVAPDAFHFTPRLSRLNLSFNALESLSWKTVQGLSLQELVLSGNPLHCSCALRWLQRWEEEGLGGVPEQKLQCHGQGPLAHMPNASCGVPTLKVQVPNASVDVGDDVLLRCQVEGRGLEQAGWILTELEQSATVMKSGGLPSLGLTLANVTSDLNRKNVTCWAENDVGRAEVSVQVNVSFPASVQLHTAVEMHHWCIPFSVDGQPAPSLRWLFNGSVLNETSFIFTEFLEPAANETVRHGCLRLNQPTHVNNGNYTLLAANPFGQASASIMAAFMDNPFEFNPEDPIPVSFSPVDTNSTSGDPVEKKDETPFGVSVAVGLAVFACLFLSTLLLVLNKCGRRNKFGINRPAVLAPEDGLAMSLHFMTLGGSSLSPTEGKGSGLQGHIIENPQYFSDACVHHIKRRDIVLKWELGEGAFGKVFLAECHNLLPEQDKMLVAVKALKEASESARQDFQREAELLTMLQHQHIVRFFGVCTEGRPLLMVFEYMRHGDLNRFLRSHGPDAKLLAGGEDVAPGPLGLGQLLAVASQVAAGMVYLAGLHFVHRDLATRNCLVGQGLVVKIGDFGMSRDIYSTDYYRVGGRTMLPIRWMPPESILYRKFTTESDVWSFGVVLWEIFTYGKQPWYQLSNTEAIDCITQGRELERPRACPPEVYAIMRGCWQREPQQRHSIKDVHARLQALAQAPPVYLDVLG

Molecule	Proliferation assay on TF1 cells IC50 (µg/ml), Mean [µg/mL]	Proliferation assay on TF1 cells IC50 (µg/ml), EXP-1 [µg/mL]	Proliferation assay on TF1 cells IC50 (µg/ml), EXP-2 [µg/mL]
B1	0.54	–	–
B2	–	0.06	0.58
B3	–	0.41	2.38
B4	–	1.4	1.21

target: T1, human TrkA receptor on the cell surface; assay: flow cytometry on TF-1 cells, 4 µg/ml; parameters: Geo Mean Fluorescence: reference not given here

Molecule	Fold Increase [fold]	Geo Mean Fluorescence
B2	3.2	11
B3	3.6	12.6
B5	2.6	8.9
B6	1.8	6.4
B4	3.9	13.7
B7	2.5	8.6
B8	2.5	8.6
B9	2	7.1
B10	1.9	6.5
B11	2.6	9.1
B12	2.4	8.3
B13	2.6	9.1

target: T1, human TrkA receptor on the cell surface; assay: flow cytometry on TF-1 cells, control immunoglobulin

Molecule	Fold Increase [fold]	Geo Mean Fluorescence
Human IgG1 standard control (antibody)	1	3.5

target: T2, TrkA-IgG (UniProt P04629 33-423, limits assumed); assay: SPR (BIACORE 2000), TrkA-IgG immobilised on CM-5 chip, 'separated 1:1' fit
T2 construct: also called specific antigen TrkA-IgG; not shown: IgG part of the fusion
Experimental: Surface plasmon resonance analysis was used to measure the association and dissociation rate constants for binding kinetics of the different antibodies (murine, chimeric, 5 humanised variants) towards TrkA-IgG using BIACORE 2000 (Biacore AB, Uppsala, Sweden). TrkA-IgG was immobilised on a CM-5 sensor chip according to manufacturer's conditions, in a way to achieve an immobilization density of 1100 RU. Each antibody sample was analyzed in antibody concentration ranges of 20-0.63 μg/ml. Calculations from the sensograms were performed by using the BIA evaluation version 3 (1999) software.
Analysis of the individual sets of sensograms was performed with the BIA evaluation version 3 (1999) software. Among the different models tested to fit the kinetics data, the best fitting was obtained with the “separated 1:1” algorithm. In this model, only a defined range of the early association and dissociation curves was used for the calculation.

T2 sequence (P04629 33-423 limits assumed): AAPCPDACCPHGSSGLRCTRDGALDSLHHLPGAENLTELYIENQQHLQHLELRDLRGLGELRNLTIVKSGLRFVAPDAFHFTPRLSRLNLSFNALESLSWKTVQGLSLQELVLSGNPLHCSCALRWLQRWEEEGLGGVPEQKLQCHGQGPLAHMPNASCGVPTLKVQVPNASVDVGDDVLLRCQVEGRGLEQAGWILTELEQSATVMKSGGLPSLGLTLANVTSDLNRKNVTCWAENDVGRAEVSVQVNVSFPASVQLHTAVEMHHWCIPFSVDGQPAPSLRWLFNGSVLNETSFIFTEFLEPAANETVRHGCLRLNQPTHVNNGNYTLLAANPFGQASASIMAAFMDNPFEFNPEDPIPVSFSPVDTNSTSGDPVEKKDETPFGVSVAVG

Molecule	Kd [nM]	koff [s⁻¹]	kon [M⁻¹ s⁻¹]
B1	0.25	0.000167	850000
B2	0.151	–	–
B3	1.45	0.000442	325000
B5	2.48	0.00386	1.62e+06
B4	0.662	0.000638	1e+06

target: T2, TrkA-IgG; assay: SPR (BIACORE 2000), TrkA-IgG immobilised on CM-5 chip, 'separated 1:1' fit; separate experiment

Molecule	Kd [nM]	koff [s⁻¹]	kon [M⁻¹ s⁻¹]
B14	41.8	0.0309	739000
